Measurements as given in publication PMC10311653 (2023).

Molecular target: hIL-1βQ15G (human)
Assay: ELISA; apparent Kd

Sequence of hIL-1βQ15G (human) (chain, as listed by the source Q15G): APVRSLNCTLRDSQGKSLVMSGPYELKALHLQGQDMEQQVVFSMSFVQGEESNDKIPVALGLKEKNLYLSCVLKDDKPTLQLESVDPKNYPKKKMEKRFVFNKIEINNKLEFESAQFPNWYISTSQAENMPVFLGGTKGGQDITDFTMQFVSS

B1: Q15Kcr-G8-mFc (Fc fusion)
chain 1: EVQLQQSGAELVKPGASVKLSCTASDFNIKDTYIHWVKQRPEQGLEWIGRIDPADGNTKYDPKFQGKATITADTSSNTAYLQLSSLTSEDTAVYYCAIHYYGSFPYWGQGTLVTVSA
chain 2: DIVMTQAHKFMSTSVGDRVSITCQASQDVGTAVAWYQQKPGQSPKLLIYWASTRHTGVPDRFTGSGSGTDFTLTISNVQSEDLADYFCQQYSSYPYTFGGGTKLEIK
Work on B1 yielded a Kd of 0.0273 µM.
